Reference: patent US20240327522A1 (Genentech, published 2024)

What was measured:
[1] = target: T1, cyno.aVb8.13650 (cynomolgus, UniProt A0A2K5WCD3 31-992; G7P0S0 43-684); test: SPR binding assay, experiment 2, antibody as ligand, aVb8 as sample
T1 construct: Carries another lot/construct number than cyno.aVb8-19393; kept apart; also called cynomolgus αvβ8

[2] = target: T2, recombinant human αvβ8 protein (PARS-17102) (human); test: as above
T2 construct: also called hu.aVb8.17102; not shown: C-terminal acid/basic coils and any purification tags
T2 alpha: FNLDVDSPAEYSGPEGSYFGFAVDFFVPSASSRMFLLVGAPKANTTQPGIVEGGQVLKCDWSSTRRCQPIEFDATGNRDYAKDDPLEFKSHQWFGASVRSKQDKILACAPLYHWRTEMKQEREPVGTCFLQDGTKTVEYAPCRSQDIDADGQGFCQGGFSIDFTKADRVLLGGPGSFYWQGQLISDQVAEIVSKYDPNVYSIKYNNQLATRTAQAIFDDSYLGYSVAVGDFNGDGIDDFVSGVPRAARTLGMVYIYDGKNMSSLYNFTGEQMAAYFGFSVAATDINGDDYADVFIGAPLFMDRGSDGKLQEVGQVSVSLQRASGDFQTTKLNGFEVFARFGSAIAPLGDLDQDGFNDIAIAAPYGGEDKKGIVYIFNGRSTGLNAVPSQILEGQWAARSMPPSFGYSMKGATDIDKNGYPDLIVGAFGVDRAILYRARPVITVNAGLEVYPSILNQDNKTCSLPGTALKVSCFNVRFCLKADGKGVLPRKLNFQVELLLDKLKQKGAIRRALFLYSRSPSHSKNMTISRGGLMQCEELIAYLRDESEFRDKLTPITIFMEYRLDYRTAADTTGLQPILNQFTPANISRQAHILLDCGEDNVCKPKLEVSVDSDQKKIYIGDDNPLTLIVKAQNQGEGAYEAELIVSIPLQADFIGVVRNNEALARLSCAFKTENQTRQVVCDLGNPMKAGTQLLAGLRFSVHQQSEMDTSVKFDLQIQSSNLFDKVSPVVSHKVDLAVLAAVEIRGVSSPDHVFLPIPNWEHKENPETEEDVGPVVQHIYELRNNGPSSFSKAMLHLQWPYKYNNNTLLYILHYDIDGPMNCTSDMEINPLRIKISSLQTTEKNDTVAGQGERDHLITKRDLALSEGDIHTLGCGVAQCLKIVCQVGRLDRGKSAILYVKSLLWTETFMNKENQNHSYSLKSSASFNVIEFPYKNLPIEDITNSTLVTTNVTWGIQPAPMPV
T2 beta: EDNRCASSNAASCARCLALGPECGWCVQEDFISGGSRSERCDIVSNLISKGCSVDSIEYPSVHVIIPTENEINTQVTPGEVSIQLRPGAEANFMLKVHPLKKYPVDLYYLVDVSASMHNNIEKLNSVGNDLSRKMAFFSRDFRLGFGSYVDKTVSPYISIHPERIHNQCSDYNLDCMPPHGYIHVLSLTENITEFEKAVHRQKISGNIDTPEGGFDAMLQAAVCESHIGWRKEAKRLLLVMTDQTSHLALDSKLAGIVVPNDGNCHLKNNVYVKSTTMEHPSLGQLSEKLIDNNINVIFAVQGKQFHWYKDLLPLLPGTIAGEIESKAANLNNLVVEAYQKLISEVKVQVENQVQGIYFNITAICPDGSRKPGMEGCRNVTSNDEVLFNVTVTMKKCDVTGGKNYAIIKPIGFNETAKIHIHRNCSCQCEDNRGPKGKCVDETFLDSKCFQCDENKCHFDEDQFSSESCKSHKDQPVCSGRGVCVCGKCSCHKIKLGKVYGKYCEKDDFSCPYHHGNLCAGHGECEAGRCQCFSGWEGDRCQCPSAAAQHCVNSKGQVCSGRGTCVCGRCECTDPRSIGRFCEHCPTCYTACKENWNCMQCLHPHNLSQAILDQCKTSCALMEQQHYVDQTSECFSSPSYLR

[3] = target: T3, recombinant mouse αvβ8 protein (PARS-17103) (murine, UniProt P43406 31-988; Q0VBD0 43-681, limits assumed); test: as above
T3 construct: Made in house; also called mu.aVb8.17103
T3 sequence (P43406 31-988 limits assumed, chain 1 of 2): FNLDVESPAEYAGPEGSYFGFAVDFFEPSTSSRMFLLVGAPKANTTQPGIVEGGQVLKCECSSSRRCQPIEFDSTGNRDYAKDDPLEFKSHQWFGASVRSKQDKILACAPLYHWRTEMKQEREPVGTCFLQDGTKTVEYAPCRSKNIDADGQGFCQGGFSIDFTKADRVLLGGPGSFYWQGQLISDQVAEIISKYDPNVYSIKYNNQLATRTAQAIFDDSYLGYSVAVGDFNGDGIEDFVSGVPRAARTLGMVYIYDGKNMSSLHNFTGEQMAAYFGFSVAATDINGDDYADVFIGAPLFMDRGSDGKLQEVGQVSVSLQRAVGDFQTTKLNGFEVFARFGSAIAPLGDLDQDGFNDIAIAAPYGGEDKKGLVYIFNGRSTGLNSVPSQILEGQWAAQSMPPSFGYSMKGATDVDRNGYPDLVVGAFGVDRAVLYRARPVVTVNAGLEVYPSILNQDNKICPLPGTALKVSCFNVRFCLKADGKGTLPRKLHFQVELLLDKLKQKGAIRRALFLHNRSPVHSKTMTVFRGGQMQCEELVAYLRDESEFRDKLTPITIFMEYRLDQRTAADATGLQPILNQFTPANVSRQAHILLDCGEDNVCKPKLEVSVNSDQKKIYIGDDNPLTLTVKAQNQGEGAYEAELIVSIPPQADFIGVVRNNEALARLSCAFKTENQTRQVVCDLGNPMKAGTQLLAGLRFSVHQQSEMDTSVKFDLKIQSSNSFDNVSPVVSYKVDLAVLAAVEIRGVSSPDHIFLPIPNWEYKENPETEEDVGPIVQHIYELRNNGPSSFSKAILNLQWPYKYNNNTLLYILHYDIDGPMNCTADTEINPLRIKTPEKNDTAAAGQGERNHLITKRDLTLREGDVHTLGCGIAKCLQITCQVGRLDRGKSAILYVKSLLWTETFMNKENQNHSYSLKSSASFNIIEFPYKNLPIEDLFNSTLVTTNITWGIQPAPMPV
T3 sequence (Q0VBD0 43-681 limits assumed, chain 2 of 2): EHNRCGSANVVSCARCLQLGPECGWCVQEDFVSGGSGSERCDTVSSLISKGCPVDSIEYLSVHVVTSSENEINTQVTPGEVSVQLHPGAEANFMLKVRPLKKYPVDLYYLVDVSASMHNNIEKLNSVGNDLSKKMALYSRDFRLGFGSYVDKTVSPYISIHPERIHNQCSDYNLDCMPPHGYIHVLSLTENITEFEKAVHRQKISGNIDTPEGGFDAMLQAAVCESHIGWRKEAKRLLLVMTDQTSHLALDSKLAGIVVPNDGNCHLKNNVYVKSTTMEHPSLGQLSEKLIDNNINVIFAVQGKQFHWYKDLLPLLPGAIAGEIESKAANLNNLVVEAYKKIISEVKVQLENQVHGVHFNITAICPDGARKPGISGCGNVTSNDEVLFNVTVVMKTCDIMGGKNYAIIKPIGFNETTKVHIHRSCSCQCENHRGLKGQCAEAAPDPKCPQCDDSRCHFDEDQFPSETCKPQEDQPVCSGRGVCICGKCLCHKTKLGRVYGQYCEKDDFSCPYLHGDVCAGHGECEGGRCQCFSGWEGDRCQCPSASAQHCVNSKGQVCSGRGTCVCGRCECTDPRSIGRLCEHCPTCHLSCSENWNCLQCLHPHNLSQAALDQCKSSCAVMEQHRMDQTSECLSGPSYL

[4] = target: T4, recombinant cynomolgus monkey αvβ8 protein (PARS-19393) (cynomolgus monkey, UniProt A0A2K5WCD3 31-992; G7P0S0 43-684); test: SPR binding assay, experiment 1, antibody as ligand, aVb8 as sample
T4 construct: also called cyno.aVb8-19393; cyno.aVb8

[5] = target: T2, recombinant human αvβ8 protein …; test: as above
[6] = target: T3, recombinant mouse αvβ8 protein …; test: as above
[7] = target: T5, human αvβ5 (human, UniProt P06756 31-992; P18084 24-719); test: SPR binding assay, sample hu.aVb1,3,5,6
T5 construct: Counter-screen integrin; construct not described; also called hu.aVb5; αV05
T5 sequence (P18084 24-719 limits assumed, one chain of several): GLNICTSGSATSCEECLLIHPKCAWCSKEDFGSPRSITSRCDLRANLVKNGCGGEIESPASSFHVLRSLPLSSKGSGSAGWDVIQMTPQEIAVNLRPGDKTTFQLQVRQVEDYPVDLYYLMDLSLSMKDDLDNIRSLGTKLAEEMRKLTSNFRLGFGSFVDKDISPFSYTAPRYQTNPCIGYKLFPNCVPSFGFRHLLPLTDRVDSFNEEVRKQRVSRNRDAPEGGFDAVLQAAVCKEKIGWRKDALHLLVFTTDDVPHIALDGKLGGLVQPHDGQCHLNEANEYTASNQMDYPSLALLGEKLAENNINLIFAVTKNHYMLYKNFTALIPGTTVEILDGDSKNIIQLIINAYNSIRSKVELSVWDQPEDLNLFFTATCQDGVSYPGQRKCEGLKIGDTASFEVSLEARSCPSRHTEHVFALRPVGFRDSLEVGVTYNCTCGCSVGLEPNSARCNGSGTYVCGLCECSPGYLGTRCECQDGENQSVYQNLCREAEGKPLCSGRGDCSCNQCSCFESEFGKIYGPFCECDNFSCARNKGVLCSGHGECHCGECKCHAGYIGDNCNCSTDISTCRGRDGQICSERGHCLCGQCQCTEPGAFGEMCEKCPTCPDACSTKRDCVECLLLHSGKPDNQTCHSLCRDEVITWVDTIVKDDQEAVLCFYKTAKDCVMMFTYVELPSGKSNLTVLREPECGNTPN

[8] = target: T6, human αvβ1 (human, UniProt P06756 31-992; P05556 21-728); test: SPR binding assay, sample hu.aVb1,3,5,6
T6 construct: Counter-screen integrin; construct not described; also called hu.aVb1; αVP1
T6 sequence (P05556 21-728 limits assumed, one chain of several): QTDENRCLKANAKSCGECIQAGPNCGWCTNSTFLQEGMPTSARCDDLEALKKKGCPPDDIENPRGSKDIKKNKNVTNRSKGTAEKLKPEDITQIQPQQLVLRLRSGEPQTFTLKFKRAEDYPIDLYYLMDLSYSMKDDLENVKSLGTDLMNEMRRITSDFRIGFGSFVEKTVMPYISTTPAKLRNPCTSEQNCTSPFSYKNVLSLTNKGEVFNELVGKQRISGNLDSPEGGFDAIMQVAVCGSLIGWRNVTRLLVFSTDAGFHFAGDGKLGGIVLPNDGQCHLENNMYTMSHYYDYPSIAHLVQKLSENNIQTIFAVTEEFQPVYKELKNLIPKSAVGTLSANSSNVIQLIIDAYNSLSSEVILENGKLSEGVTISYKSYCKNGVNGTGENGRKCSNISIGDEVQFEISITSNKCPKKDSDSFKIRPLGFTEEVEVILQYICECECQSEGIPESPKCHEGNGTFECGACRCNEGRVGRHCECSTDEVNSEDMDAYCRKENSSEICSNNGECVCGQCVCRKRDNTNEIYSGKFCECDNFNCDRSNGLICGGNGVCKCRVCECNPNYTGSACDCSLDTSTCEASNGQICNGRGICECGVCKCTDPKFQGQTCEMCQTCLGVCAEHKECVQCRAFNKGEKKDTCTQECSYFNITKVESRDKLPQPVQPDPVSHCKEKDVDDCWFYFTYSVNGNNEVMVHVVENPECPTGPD

[9] = target: T7, human αvβ3 (human, UniProt P06756 31-992; P05106 27-718); test: SPR binding assay, sample hu.aVb1,3,5,6
T7 construct: Counter-screen integrin; construct not described; also called hu.aVb3; αV03
T7 sequence (P05106 27-718 limits assumed, one chain of several): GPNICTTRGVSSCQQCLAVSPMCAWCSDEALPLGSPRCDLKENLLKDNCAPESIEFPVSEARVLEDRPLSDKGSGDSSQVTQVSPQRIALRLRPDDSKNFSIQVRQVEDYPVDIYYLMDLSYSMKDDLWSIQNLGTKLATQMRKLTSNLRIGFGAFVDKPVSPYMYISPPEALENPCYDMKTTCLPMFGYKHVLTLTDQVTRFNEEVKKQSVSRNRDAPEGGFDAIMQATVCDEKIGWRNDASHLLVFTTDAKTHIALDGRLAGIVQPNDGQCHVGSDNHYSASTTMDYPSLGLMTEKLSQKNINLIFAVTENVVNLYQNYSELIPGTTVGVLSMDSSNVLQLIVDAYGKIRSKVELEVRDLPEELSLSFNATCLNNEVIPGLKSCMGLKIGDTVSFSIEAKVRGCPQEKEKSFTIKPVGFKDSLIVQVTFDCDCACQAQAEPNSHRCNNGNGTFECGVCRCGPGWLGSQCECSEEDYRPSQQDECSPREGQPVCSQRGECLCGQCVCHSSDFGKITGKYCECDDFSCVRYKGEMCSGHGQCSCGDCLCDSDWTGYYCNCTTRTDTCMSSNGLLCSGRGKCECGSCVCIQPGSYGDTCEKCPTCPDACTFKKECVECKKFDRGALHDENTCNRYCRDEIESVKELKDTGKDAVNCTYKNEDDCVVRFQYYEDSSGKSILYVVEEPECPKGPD

[10] = target: T8, human αvβ6 (human, UniProt P06756 31-992; P18564 22-709); test: SPR binding assay, sample hu.aVb1,3,5,6
T8 construct: Counter-screen integrin; construct not described; also called hu.aVb6; αV06
T8 sequence (P18564 22-709 limits assumed, one chain of several): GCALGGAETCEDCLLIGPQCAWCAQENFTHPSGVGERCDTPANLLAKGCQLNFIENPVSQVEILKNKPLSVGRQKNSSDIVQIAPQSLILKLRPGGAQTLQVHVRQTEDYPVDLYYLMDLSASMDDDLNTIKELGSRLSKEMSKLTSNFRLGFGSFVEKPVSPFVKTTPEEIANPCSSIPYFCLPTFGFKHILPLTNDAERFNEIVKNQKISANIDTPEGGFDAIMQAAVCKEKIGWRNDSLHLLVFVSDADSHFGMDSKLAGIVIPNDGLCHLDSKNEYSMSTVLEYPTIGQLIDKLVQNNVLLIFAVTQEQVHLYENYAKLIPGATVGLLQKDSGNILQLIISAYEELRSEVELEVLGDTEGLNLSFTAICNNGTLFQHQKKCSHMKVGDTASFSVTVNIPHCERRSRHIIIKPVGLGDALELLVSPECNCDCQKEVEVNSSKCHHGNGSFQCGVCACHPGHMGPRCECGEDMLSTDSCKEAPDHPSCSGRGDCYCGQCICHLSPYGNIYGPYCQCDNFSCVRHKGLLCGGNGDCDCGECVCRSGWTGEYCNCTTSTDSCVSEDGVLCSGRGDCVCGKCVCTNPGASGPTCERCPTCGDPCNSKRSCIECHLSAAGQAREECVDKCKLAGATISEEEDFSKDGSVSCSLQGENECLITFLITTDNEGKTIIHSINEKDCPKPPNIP

B1: Hu.aVb8-92.H13L1 (aVb8-92.H13L1.hIgG1.LALAPG) (antibody, V domains shown)
VH: EQQLLESGGGLVQPGGSLRLSCAASGFSLSSYAMGWVRQAPGKGLEWIGVIRKDDNTYYGNWAKGRFTISRDSSKNTLYLQMNSLRAEDTAVYFCARALNTYVGFPYFNIWGPGTLVTVSS
VL: DAVLTQSPDSLAVSLGERATINCQSIKSVGDNKWLAWYQQKPGQPPKLLIYDASDLASGVPDRFSGSGSRTDFTLTISSLQAEDVAVYYCAGSVSSGDSGFGGGTKVEIKR
notes: Human IgG1 LALAPG; also called PARS-20463-65 (IH) aVb8-92.H13L1.hIgG1.LALAPG; humanized αvβ8-92
B1 was tested, and the Kd [1] was 12.9 nM, the koff [1] was 0.000443 s⁻¹ and the kon [1] was 34500 M⁻¹ s⁻¹. For the same binder, the Kd [2] was 2.95 nM, the koff [2] was 0.000195 s⁻¹ and the kon [2] was 66100 M⁻¹ s⁻¹. The Kd [3] was 3.42 nM, the koff [3] was 0.000236 s⁻¹ and the kon [3] was 69100 M⁻¹ s⁻¹. The Kd [4] was 11.1 nM, the koff [4] was 0.000284 s⁻¹ and the kon [4] was 25500 M⁻¹ s⁻¹. For the same binder, the Kd [5] was 10.1 nM, the koff [5] was 0.000283 s⁻¹ and the kon [5] was 28000 M⁻¹ s⁻¹. It also gave a Kd [6] of 9.91 nM, a koff [6] of 0.000311 s⁻¹ and a kon [6] of 31400 M⁻¹ s⁻¹. B1: no binding [7]; no binding [8]; no binding [9]. B1: no binding [10].
